The numbers were not newly measured in paper PMC3433420, which cites them from elsewhere.

Read-outs that look alike come from different tables or passages of the source.

Some targets named below: ZAP70-NC (Homo sapiens) (UniProt P43403); VAV1 (Homo sapiens) (UniProt P15498); TENC1 (Homo sapiens) (UniProt Q63HR2); PIK3R3-C (Homo sapiens) (UniProt Q92569); SHB (Homo sapiens) (UniProt Q15464); ABL1 (Homo sapiens) (UniProt P00519); SRC (Homo sapiens) (UniProt P12931); PLCG2-NC (Homo sapiens) (UniProt P16885); GRB7 (Homo sapiens) (UniProt Q14451); SYK-C (Homo sapiens) (UniProt P43405); GRB10 (Homo sapiens) (UniProt Q13322).

Conditions in all cases: cited from earlier work
The target of series [1] is SHC1-PTB (Homo sapiens) (UniProt P29353).
SHC1-PTB (Homo sapiens), sequence (P29353 483-583): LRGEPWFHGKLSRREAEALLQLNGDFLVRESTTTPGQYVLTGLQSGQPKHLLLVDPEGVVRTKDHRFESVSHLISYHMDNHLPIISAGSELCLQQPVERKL
In series [2] the target is PIK3R3-NC (Homo sapiens) (UniProt Q92569).
The target of series [3] is SHC1-PTB (Homo sapiens) (UniProt P29353). This is another data set of the same source.
For series [4], the target named is ABL2 (Homo sapiens) (UniProt P42684).
ABL2 (Homo sapiens), sequence (P42684 168-268): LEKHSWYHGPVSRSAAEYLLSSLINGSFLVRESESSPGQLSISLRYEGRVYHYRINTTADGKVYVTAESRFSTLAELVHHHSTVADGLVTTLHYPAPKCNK
In series [5] the target is GRB2 (Homo sapiens) (UniProt P62993).
GRB2 (Homo sapiens), sequence (P62993 55-157): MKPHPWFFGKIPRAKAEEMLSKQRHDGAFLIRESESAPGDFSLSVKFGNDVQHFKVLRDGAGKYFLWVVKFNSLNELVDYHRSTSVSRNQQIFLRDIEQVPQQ
Series [6] concerns the target PIK3R2-N (Homo sapiens) (UniProt O00459).
In series [7] the target is GRB2 (Homo sapiens) (UniProt P62993). The source holds these as a separate data set.
Series [8] concerns the target ABL2 (Homo sapiens) (UniProt P42684). This is another data set of the same source.
The target in series [9] is PIK3R3-N (Homo sapiens) (UniProt Q92569).
For series [10], the target named is PIK3R1-NC (Homo sapiens) (UniProt P27986).
PIK3R1-NC (Homo sapiens), sequence (P27986 328-723): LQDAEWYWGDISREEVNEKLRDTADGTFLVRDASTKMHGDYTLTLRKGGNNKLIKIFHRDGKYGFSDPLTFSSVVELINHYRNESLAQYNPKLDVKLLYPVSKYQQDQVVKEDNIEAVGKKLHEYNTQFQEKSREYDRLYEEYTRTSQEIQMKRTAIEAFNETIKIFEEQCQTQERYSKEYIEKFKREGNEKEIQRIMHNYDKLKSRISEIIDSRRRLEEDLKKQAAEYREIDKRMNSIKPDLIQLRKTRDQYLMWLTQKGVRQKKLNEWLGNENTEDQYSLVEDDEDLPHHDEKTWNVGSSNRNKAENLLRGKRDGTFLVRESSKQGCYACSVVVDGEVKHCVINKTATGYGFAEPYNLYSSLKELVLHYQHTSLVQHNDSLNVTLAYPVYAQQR
Series [11] deals with PIK3R2-NC (Homo sapiens) (UniProt O00459).
PIK3R2-NC (Homo sapiens), sequence (O00459 325-721): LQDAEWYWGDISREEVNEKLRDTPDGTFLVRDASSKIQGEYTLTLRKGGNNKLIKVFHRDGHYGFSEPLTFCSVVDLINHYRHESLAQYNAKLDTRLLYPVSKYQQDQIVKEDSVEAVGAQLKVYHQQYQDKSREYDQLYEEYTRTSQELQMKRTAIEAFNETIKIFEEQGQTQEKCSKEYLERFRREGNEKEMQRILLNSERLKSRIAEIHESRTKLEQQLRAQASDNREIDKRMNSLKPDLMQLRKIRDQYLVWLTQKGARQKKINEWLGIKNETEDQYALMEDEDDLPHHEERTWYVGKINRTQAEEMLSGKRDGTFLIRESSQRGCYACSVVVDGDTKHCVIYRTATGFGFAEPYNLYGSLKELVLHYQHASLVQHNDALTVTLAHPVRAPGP
The target of series [12] is RASA1-N (Homo sapiens) (UniProt P20936).
RASA1-N (Homo sapiens), sequence (P20936 176-446): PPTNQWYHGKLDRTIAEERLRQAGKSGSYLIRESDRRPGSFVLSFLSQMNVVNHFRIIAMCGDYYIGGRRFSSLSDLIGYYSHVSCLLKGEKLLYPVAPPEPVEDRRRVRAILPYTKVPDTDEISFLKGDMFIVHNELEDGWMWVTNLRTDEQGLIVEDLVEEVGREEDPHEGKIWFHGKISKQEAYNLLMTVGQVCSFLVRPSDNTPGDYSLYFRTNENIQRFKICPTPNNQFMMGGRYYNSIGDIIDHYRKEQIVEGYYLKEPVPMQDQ
Series [13] concerns the target ITK (Homo sapiens) (UniProt Q08881).
The target in series [14] is NCK2 (Homo sapiens) (UniProt O43639).
NCK2 (Homo sapiens), sequence (O43639 280-380): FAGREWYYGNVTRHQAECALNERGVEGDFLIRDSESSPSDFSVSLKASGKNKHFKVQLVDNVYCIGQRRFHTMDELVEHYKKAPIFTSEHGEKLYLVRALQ
The target in series [15] is VAV2 (Homo sapiens) (UniProt P52735).
VAV2 (Homo sapiens), sequence (P52735 668-772): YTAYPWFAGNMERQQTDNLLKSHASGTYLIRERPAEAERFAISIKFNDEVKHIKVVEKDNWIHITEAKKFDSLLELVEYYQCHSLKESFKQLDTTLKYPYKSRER
The target in series [16] is RASA1-N (Homo sapiens) (UniProt P20936). The source holds these as a separate data set.
Series [17] deals with PIK3R3-N (Homo sapiens) (UniProt Q92569). This is another data set of the same source.
Series [18] addresses PIK3R1-N (Homo sapiens) (UniProt P27986).
The target in series [19] is PIK3R3-NC (Homo sapiens) (UniProt Q92569). The source holds these as a separate data set.
Series [20] deals with SYK-NC (Homo sapiens) (UniProt P43405).
Series [21] deals with PIK3R2-NC (Homo sapiens) (UniProt O00459). This is another data set of the same source.
Series [22] deals with ABL2 (Homo sapiens) (UniProt P42684). This is another data set of the same source.
The target of series [23] is PIK3R1-NC (Homo sapiens) (UniProt P27986). The source holds these as a separate data set.
Series [24] deals with YES1 (Homo sapiens) (UniProt P07947).
YES1 (Homo sapiens), sequence (P07947 153-260): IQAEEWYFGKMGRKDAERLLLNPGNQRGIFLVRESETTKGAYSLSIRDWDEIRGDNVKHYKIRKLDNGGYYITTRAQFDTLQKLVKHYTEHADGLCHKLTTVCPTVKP
For series [25], the target named is ABL2 (Homo sapiens) (UniProt P42684). This is another data set of the same source.
Series [26] shares this target. The source holds these as a separate data set.
Series [27] concerns the target BLK (Homo sapiens) (UniProt P51451).
The target of series [28] is ABL2 (Homo sapiens) (UniProt P42684). The source holds these as a separate data set.
The target in series [29] is PIK3R1-N (Homo sapiens) (UniProt P27986). This is another data set of the same source.
PIK3R1-N (Homo sapiens), sequence (P27986 328-723): as the sequence (P27986 328-723) above
The target of series [30] is PIK3R1-NC (Homo sapiens) (UniProt P27986). The source holds these as a separate data set.
Series [31] deals with RASA1-N (Homo sapiens) (UniProt P20936). The source holds these as a separate data set.
In series [32] the target is ITK (Homo sapiens) (UniProt Q08881). The source holds these as a separate data set.
ITK (Homo sapiens), sequence (Q08881 234-343): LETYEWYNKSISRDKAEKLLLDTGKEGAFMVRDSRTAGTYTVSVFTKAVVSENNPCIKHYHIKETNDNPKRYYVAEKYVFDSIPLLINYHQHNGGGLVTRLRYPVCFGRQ
Series [33] has as its target YES1 (Homo sapiens) (UniProt P07947). This is another data set of the same source.
Series [34] concerns the target NCK2 (Homo sapiens) (UniProt O43639). This is another data set of the same source.
Series [35] addresses SYK-NC (Homo sapiens) (UniProt P43405). The source holds these as a separate data set.
Series [36] deals with PIK3R3-N (Homo sapiens) (UniProt Q92569). This is another data set of the same source.
Series [37] addresses BLK (Homo sapiens) (UniProt P51451). This is another data set of the same source.
Series [38] deals with VAV2 (Homo sapiens) (UniProt P52735). The source holds these as a separate data set.
The target of series [39] is PIK3R3-NC (Homo sapiens) (UniProt Q92569). This is another data set of the same source.
Series [40] concerns the target ABL2 (Homo sapiens) (UniProt P42684). This is another data set of the same source.
Series [41] concerns the target GRB2 (Homo sapiens) (UniProt P62993). The source holds these as a separate data set.
The target of series [42] is PIK3R2-NC (Homo sapiens) (UniProt O00459). This is another data set of the same source.
For series [43], the target named is PIK3R2-N (Homo sapiens) (UniProt O00459). This is another data set of the same source.
PIK3R2-N (Homo sapiens), sequence (O00459 325-721): as the sequence (O00459 325-721) above

BLK (Homo sapiens), sequence (P51451 119-225): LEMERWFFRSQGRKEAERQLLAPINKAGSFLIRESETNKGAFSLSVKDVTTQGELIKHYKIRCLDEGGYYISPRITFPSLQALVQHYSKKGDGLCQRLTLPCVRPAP
TENC1 (Homo sapiens), sequence (Q63HR2 1135-1252): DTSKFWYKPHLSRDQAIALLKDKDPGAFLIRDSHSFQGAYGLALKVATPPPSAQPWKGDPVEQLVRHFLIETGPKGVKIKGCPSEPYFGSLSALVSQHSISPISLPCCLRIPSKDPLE
VAV1 (Homo sapiens), sequence (P15498 666-770): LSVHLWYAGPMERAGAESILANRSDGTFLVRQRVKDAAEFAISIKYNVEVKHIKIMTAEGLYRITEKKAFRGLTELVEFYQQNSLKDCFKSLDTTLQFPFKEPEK
PLCG2-NC (Homo sapiens), sequence (P16885 527-740): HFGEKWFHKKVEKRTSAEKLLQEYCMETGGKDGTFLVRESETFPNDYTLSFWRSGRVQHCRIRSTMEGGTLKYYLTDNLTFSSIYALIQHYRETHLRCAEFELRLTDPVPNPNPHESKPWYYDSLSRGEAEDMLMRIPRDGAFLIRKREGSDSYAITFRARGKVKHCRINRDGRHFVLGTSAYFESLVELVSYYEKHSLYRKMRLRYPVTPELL
ZAP70-NC (Homo sapiens), sequence (P43403 5-259): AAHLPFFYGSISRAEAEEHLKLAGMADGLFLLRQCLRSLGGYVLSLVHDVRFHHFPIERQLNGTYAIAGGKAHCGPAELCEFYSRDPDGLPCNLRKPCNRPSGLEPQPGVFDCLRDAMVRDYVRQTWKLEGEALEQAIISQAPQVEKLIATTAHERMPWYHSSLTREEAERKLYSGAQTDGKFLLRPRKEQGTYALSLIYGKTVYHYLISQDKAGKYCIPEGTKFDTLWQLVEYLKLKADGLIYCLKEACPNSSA
GRB10 (Homo sapiens), sequence (Q13322 488-579): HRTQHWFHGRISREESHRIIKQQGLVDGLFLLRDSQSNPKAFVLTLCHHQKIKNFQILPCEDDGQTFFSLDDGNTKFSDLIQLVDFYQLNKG
ABL1 (Homo sapiens), sequence (P00519 122-222): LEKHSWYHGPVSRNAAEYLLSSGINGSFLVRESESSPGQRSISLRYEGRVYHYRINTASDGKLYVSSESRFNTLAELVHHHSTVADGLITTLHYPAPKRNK
GRB7 (Homo sapiens), sequence (Q14451 426-532): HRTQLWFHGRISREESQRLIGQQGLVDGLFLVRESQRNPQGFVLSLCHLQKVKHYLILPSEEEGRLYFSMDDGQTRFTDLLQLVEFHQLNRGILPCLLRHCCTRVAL
SHB (Homo sapiens), sequence (Q15464 405-509): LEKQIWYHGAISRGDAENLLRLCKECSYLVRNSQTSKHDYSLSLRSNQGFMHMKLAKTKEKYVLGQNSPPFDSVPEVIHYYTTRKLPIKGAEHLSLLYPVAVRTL

For …pYLNTVQPTd, the apparent Kd (screen) is 173 nM in the series with SHC1-PTB (Homo sapiens) [1]; 1690 nM with PIK3R3-NC (Homo sapiens) [2]; 133 nM with SHC1-PTB (Homo sapiens) [3]; 85 nM with ABL2 (Homo sapiens) [4]; 422 nM with GRB2 (Homo sapiens) [5]; 763 nM with PIK3R2-N (Homo sapiens) [6]. Besides, the apparent Kd (screen) with GRB2 (Homo sapiens) [7] was 724 nM; in the series with ABL2 (Homo sapiens) [8] it was 120 nM; with ZAP70-NC (Homo sapiens) it was 1140 nM; with PIK3R3-N (Homo sapiens) [9], 838 nM; in the series with PIK3R1-NC (Homo sapiens) [10], 1570 nM; in the series with PIK3R2-NC (Homo sapiens) [11], 857 nM. Besides, the apparent Kd (screen) was 388 nM with RASA1-N (Homo sapiens) [12], 1760 nM in the series with ITK (Homo sapiens) [13], 326 nM in the series with NCK2 (Homo sapiens) [14] and 373 nM with VAV2 (Homo sapiens) [15].

For the substance …pYEYMDVGS, the apparent Kd (screen) was 671 nM with RASA1-N (Homo sapiens) [16]; 553 nM with PIK3R3-N (Homo sapiens) [17]; 2000 nM with VAV1 (Homo sapiens); 1250 nM with PIK3R1-N (Homo sapiens) [18]; 903 nM with TENC1 (Homo sapiens); 97 nM in the series with PIK3R3-NC (Homo sapiens) [19]. Further, the apparent Kd (screen) in the series with SYK-NC (Homo sapiens) [20] is 851 nM; with PIK3R2-NC (Homo sapiens) [21], 385 nM; in the series with ABL2 (Homo sapiens) [22], 158 nM; in the series with PIK3R1-NC (Homo sapiens) [23] it was 375 nM; with PIK3R3-C (Homo sapiens) it was 270 nM.

As to …pYSSDPTGAd, the apparent Kd (screen) with YES1 (Homo sapiens) [24] is 295 nM; in the series with ABL2 (Homo sapiens) [25], 2000 nM; with SHB (Homo sapiens), 862 nM.

Turning to …pYHAEGGKVd, the apparent Kd (screen) was 2000 nM with ABL2 (Homo sapiens) [26], 1710 nM with BLK (Homo sapiens) [27] and 1080 nM with ABL2 (Homo sapiens) [28].

Turning to …pYINQSVPKd, the apparent Kd (screen) with PIK3R1-N (Homo sapiens) [29] was 1080 nM; in the series with PIK3R1-NC (Homo sapiens) [30] it was 670 nM; in the series with RASA1-N (Homo sapiens) [31] it was 180 nM; in the series with ITK (Homo sapiens) [32], 219 nM; with YES1 (Homo sapiens) [33] it was 337 nM; in the series with ABL1 (Homo sapiens) it was 916 nM. In addition, the apparent Kd (screen) in the series with NCK2 (Homo sapiens) [34] is 1100 nM; in the series with SYK-NC (Homo sapiens) [35] it was 908 nM; with SRC (Homo sapiens), 1790 nM; in the series with PIK3R3-N (Homo sapiens) [36], 507 nM; in the series with BLK (Homo sapiens) [37], 300 nM; in the series with VAV2 (Homo sapiens) [38], 542 nM. Besides, the apparent Kd (screen) was 1630 nM with PLCG2-NC (Homo sapiens); 1020 nM in the series with PIK3R3-NC (Homo sapiens) [39]; 152 nM with ABL2 (Homo sapiens) [40]; 198 nM with GRB2 (Homo sapiens) [41]; 1980 nM in the series with GRB7 (Homo sapiens); 1920 nM with SYK-C (Homo sapiens). The apparent Kd (screen) with PIK3R2-NC (Homo sapiens) [42] is 1410 nM; in the series with GRB10 (Homo sapiens), 1300 nM; in the series with PIK3R2-N (Homo sapiens) [43], 453 nM.
